Test [1] deals with HLA-B*27:05. Kind of test: IEDB peptide-MHC binding, purified MHC/direct/fluorescence; filed as Kd, often an IC50 or EC50 that approximates it; ≥ and ≤ were set here for values at or beyond the usual limits of such assays. Conditions: source organism: Giardia intestinalis.
Test [2] has as its target HLA-A*11:01. Described as above. As to conditions: source organism: Giardia intestinalis.
The target in test [3] is HLA-B*08:02. The test is described as above. As to conditions: source organism: Giardia lamblia ATCC 50803.
The target of test [4] is HLA-B*58:01. The description is as above. Conditions: source organism: Giardia intestinalis.
The target in test [5] is HLA-A*69:01. The test is described as above. Conditions: source organism: Giardia intestinalis.
For test [6], the target named is HLA-B*08:03. The description is as above. As to conditions: source organism: Giardia lamblia ATCC 50803.
In test [7] the target is HLA-A*03:01. Described as above. Conditions: source organism: Giardia intestinalis.
Test [8] addresses HLA-B*46:01. The test is described as above. Conditions: source organism: Giardia intestinalis.
Test [9] addresses HLA-B*48:01. The description is as above. Conditions: source organism: Giardia intestinalis.
Test [10] has as its target HLA-B*08:01. The test is described as above. Conditions: source organism: Giardia lamblia ATCC 50803.
The target in test [11] is HLA-A*26:01. The description is as above.
Test [12] has as its target HLA-B*07:02. Described as above. Conditions: source organism: Giardia intestinalis.
Test [13] deals with HLA-B*18:01. Described as above. Conditions: source organism: Giardia intestinalis.
The target in test [14] is HLA-A*31:01. The test is described as above. Conditions: source organism: Giardia intestinalis.
The target in test [15] is HLA-A*26:03. The test is described as above. Conditions: source organism: Giardia lamblia ATCC 50803.
For test [16], the target named is HLA-A*01:01. The description is as above. As to conditions: source organism: Giardia intestinalis.
The target in test [17] is HLA-B*40:01. Described as above. Conditions: source organism: Giardia intestinalis.
Test [18] addresses HLA-A*02:01. Put plainly: IEDB peptide-MHC binding, purified MHC/competitive/fluorescence; filed as Kd, often an IC50 or EC50 that approximates it; ≥ and ≤ were set here for values at or beyond the usual limits of such assays.
In test [19] the target is HLA-B*15:01. The test is described as above. As to conditions: source organism: Giardia lamblia ATCC 50803.
The target of test [20] is HLA-B*15:17. Described as above.
The target of test [21] is HLA-A*68:02. Described as above. Conditions: source organism: Giardia lamblia ATCC 50803.
In test [22] the target is HLA-B*57:01. The description is as above. As to conditions: source organism: Giardia lamblia ATCC 50803.
Test [23] concerns the target HLA-A*26:02. Kind of test: IEDB peptide-MHC binding, purified MHC/direct/fluorescence; filed as Kd, often an IC50 or EC50 that approximates it; ≥ and ≤ were set here for values at or beyond the usual limits of such assays. Conditions: source organism: West Nile virus strain PTRoxo.
In test [24] the target is HLA-C*05:01. Described as above. Conditions: source organism: human gammaherpesvirus 4.
The target of test [25] is HLA-B*15:42. Put plainly: IEDB peptide-MHC binding, purified MHC/competitive/fluorescence; filed as Kd, often an IC50 or EC50 that approximates it; ≥ and ≤ were set here for values at or beyond the usual limits of such assays.
For test [26], the target named is HLA-B*83:01. The test is described as above.
The target of test [27] is HLA-A*69:01. The description is as above.
Test [28] addresses HLA-B*45:06. The description is as above.
Test [29] deals with HLA-C*04:01. The test is described as above. As to conditions: source organism: human gammaherpesvirus 4.
Test [30] concerns the target HLA-A*26:02. The test is described as above. Conditions: source organism: Human immunodeficiency virus 1.
Test [31] addresses HLA-A*11:01. Described as above. Conditions: source organism: Human immunodeficiency virus 1.
Test [32] concerns the target HLA-A*02:06. Described as above. Conditions: source organism: Human immunodeficiency virus 1.
For test [33], the target named is HLA-A*30:01. Described as above. Conditions: source organism: Human immunodeficiency virus 1.
For test [34], the target named is HLA-A*02:03. Described as above. As to conditions: source organism: Human immunodeficiency virus 1.
The target of test [35] is HLA-B*18:01. Described as above. Conditions: source organism: Human immunodeficiency virus 1.
Test [36] has as its target HLA-A*01:01. The test is described as above. As to conditions: source organism: Human immunodeficiency virus 1.
Test [37] deals with HLA-C*15:02. Kind of test: IEDB peptide-MHC binding, purified MHC/direct/fluorescence; filed as Kd, often an IC50 or EC50 that approximates it; ≥ and ≤ were set here for values at or beyond the usual limits of such assays.
The target in test [38] is HLA-C*14:02. Kind of test: IEDB peptide-MHC binding, purified MHC/competitive/fluorescence; filed as Kd, often an IC50 or EC50 that approximates it; ≥ and ≤ were set here for values at or beyond the usual limits of such assays. Conditions: source organism: Yellow fever virus.
[39] abbreviates: source organism: Giardia lamblia ATCC 50803.
The mark [40] stands for this setting: source organism: human gammaherpesvirus 4.
The mark [41] stands for this setting: source organism: Human immunodeficiency virus 1.
Where [42] appears, read: source organism: Camelpox virus CMS.
[43] abbreviates: source organism: Yellow fever virus.

Broadly, the Kd is the concentration at which binding is half-saturated. A high value points to lower affinity. Take RTMPLSRFT: the Kd in test [1] is ≥ 20 µM; in test [2], 2.68 µM; in test [3], ≥ 20 µM; in test [4], ≥ 20 µM; in test [5], ≥ 20 µM; in test [6], ≥ 20 µM. The dissociation constant (Kd) in test [7], in [8], in [9], in test [10], in test [11] (setting [39]) and in [12] was ≥ 20 µM throughout. Besides, the Kd in test [13] is ≥ 20 µM; in test [14], 12.5 µM; in [15], ≥ 20 µM; in [16], ≥ 20 µM; in test [17], ≥ 20 µM; in test [18] (setting [39]), ≥ 20 µM. For the same sequence, the Kd in [19] was 14 µM; in test [20] (setting [39]) it was ≥ 20 µM; in test [21], 4.56 µM; in test [22], 0.375 µM.
For STKAACPTM, the equilibrium dissociation constant (Kd) was 1.04 µM in test [23] and 15.7 µM in [11] (source organism: West Nile virus).
As to FTASVSTVV, the Kd was 3.95 µM in [24]; 0.0027 µM in test [18] (setting [40]); ≥ 5 µM in test [25] (setting [40]); ≥ 5 µM in test [26] (setting [40]); ≤ 0.0001 µM in [27] (setting [40]); ≥ 5 µM in test [28] (setting [40]). In addition, the Kd in test [29] was ≥ 5 µM.
Regarding RSLYNTVATLY, the dissociation constant Kd in [30] is ≥ 20 µM; in test [31] it was ≥ 20 µM; in test [27] (setting [41]), 16.6 µM; in test [32] it was ≥ 20 µM; in [20] (setting [41]), 0.0007 µM; in test [33], ≥ 20 µM. Further, the Kd is ≥ 20 µM in test [34], 0.0763 µM in test [35] and ≥ 20 µM in test [36].
As to IVIEAIHTV, the Kd in test [37] (setting [42]) amounted to 0.341 µM; in test [18] (setting [42]) it was 0.0021 µM.
As to MWHVTRGAF, the Kd in test [37] (setting [43]) was ≥ 20 µM; in test [25] (setting [43]), ≥ 5 µM; in test [26] (setting [43]), ≥ 5 µM; in [28] (setting [43]), ≥ 5 µM; in [38], 0.0028 µM.

The record behind these values is the Immune Epitope Database (IEDB).
